Experimental data published in paper PMC10098127.

Biological target: HA-tagged N100A zDHHC17 (mouse) (UniProt Q80TN5)

Human ankyrin-B-GFP (220-kDa splice variant of ankyrin-B)
protein levels of ankyrin-B-GFP (western blot) co-expressed with N100A zDHHC17 in HEK293T cells, against WT zDHHC17 or zDHHA17: 3 fold
